Columns and labels:
Conditions in all cases: chains peptide; modification not given
[1] = target: T1, GST-PDZ fusion protein, PDZ domain of SHANK1 (GID 7025450), D3YZU1; assay: ELISA
T1 chain: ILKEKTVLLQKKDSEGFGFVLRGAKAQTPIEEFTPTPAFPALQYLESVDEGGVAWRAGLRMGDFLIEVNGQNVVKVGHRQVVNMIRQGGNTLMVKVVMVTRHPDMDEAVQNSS

[2] = target: T2, GST-PDZ fusion protein, PDZ domain of SHANK2 (GID 6049185), Q9UPX8; assay: ELISA
T2 chain: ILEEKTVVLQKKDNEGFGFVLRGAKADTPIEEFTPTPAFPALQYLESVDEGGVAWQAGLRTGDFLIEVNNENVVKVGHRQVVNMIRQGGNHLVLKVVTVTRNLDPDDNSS

[3] = target: T3, GST-PDZ fusion protein, PDZ domain of MAST2 (Accession no. AB047005), Q6P0Q8; assay: ELISA (G Assay)
T3 chain: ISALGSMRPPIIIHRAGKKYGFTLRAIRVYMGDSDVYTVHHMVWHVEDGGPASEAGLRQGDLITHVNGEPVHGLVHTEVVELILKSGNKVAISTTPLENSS

## RRRSGLDDINPTVLLKERSTEL [Peptide 1957]
[1]
  EC50: 66.3 µM
[2]
  EC50: 62 µM
[3]
  EC50: 23.1 µM

From patent publication US20070020717A1
